Laboratory results as given in paper PMC5344419, “The structure of FKBP38 in complex with the MEEVD tetratricopeptide binding-motif of Hsp90” (PLoS ONE, 2017).
Entries after “also recorded” stand apart in the source; their conditions may differ. Like-named read-outs stand apart in the source and are kept apart here.

Legend:
[1] = tested on: FKBP^92-380; experiment: Analytical gel-filtration chromatography, co-migration with FKBP^92-380; type: binding; details: Superdex 200; equimolar mixture; 50 mM Tris, 300 mM NaCl, 1 mM EDTA, 0.5 mM TCEP, pH 7.5
Protocol: Equimolar concentrations of the C-terminal fragment of yHsp90^546-709 and FKBP^92-380 were mixed and loaded onto an analytical Superdex 200 column equilibrated in 50 mM Tris, 300 mM NaCl, 1 mM EDTA and 0.5 mM TCEP at pH 7.5.

[2] = tested on: K307E mutant of FKBP^92-380; experiment: Isothermal titration calorimetry (ITC), binding to the K307E carboxylate clamp mutant; details: 20 mM Tris, 300 mM NaCl, 1mM EDTA pH 7.5, 700 to 800 μM mutant injected into 50 μM yeast Hsp90^546-709
Source text: (§1) FKBP8 (FKBP^1-380) was cloned as an NdeI-HindIII fragment representing amino acids 1–380 and lacking the C-terminal trans-membrane helix into pDMXV4 with a non-cleavable C-terminal His6-Tag (Fig 1). The FKBP38 immunophilin domain, representing amino acids 92–207 (FKBP^92-207), and a larger fragment containing both the immunophilin and TPR domain (FKBP^92-380) were also cloned in pDMXV4 (Fig 1). The K307E mutation was generated in the FKBP8^92-380 construct by PCR mutagenesis. Full-length human Hsp90β, human Hsp70, two middle domain human fragments (Hsp90β^295–689 and Hsp90β^295–724) and a yeast C-terminal fragment of Hsp90 (yHsp90^546-709) were expressed from pRSETA as His-tagged fusions. The Hsp90α^464–732 construct was expressed from p2E (A. Oliver, University of Sussex), as a PreScission cleavable His-tagged fusion. […]
(§2) Proteins were dialysed overnight into 20 mM Tris, 300 mM NaCl, 1mM EDTA pH 7.5. The heat of interaction was measured on an ITC200 microcalorimeter (Microcal), with a cell volume of 200 μL, under the same buffer conditions. […] Heats of dilution were determined in a separate experiment by diluting protein into buffer, and the corrected data were fitted using a non-linear least-squares curve-fitting algorithm (Microcal Origin) with three floating variables: stoichiometry, binding constant and change in enthalpy of interaction.

[3] = biological target: T1, FKBP^1-380 (Homo sapiens, UniProt Q14318); experiment: Gel-filtration chromatography, co-migration with FKBP^1-380 (as in the legend of Fig 2L); type: binding; details: Fig 2L legend: yHsp90^546-709, FKBP^1-380 and their mixture; Superdex 200, pH 7.5
T1 construct: representing amino acids 1–380 and lacking the C-terminal trans-membrane helix; made in house; host or cells: E. coli BL21 (DE3)

[4] = biological target: T1, FKBP^1-380; experiment: Isothermal titration calorimetry (ITC), binding to FKBP^1-380 (FKBP8 isoform lacking the transmembrane domain); details: ITC (ITC200); intact protein or domain fragment; 20 mM Tris, 300 mM NaCl, 1mM EDTA pH 7.5; method: 700 to 800 μM FKBP injected into 50 μM Hsp90; Fig 2 picture: Hsp90β into FKBP^1-380 (panel C)
Source text: as §1, §2

[5] = tested on: FKBP^92-207; experiment: Isothermal titration calorimetry (ITC), binding to the immunophilin domain alone; details: full-length Hsp90β, 20 mM Tris, 300 mM NaCl, 1mM EDTA pH 7.5, 700 to 800 μM FKBP^92-207 injected into 50 μM Hsp90β
Source text: as §1, §2

[6] = biological target: FKBP^92-380; experiment: Isothermal titration calorimetry (ITC), binding to FKBP^92-380 (FKBP38 isoform); details: ITC (ITC200); 20 mM Tris, 300 mM NaCl, 1mM EDTA pH 7.5; 700 to 800 μM FKBP^92-380 injected into 50 μM intact Hsp90β
Source text: as §1, §2

[7] = tested on: yeast Hsp90; design: method as in 2 sources, ref [41] = [41]; PMID 12504007; doi:10.1016/s1097-2765(02)00785-2; 41 Panaretou B , Siligardi G , Meyer P , Maloney A , Sullivan JK , Singh S , et al Activation of the ATPase activity of hsp90 by the stress-regulated cochaperone aha1 . Mol Cell . 2002; 10 ( 6 ): 130 ||| ref [42] = [42]; PMID 9927435; doi:10.1093/emboj/18.3.754; 42 Prodromou C , Siligardi G , O'Brien R , Woolfson DN , Regan L , Panaretou B , et al Regulation of Hsp90 ATPase activity by tetratricopeptide repeat (TPR)-domain co-chaperones . Embo J . 1999; 18; details: cited from earlier work

T1 sequence (Q14318 1-380): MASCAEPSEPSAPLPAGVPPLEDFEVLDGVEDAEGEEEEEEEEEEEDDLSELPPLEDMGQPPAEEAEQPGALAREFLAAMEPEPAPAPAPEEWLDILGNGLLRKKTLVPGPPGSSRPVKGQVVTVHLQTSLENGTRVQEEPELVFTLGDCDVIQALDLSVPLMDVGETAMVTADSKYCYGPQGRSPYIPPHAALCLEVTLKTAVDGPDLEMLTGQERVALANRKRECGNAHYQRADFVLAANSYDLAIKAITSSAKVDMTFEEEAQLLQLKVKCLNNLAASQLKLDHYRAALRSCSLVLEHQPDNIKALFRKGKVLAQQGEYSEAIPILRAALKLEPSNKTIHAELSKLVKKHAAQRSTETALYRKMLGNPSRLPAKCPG

yHsp90^546-709: yeast C-terminal fragment of Hsp90
co-migration in gel filtration [1]: co-migrated
binding (in words) [2]: failed to bind
co-migration in gel filtration [3]: co-migrate as a complex

Hsp90β: Full-length human Hsp90β, expressed as His-tagged fusion
Kd [4]: 2800 ± 100 nM
binding (in words) [5]: failed to bind
Kd [6]: 2600 ± 200 nM

Cpr6: yeast peptidyl-propyl isomerase
effect on ATPase activity of yeast Hsp90 ([7]; peptidyl-propyl isomerase Cpr6, previous studies, ref [41]): weakly activates

Sti1: TPR domain protein Sti1 (HOP in humans)
effect on ATPase activity of yeast Hsp90 ([7]; TPR domain protein Sti1 (HOP in humans), previous studies, ref [42]): inhibit; also recorded: strong inhibitor

Hsp90β^295-724: fragment representing the middle and C-terminal domain of Hsp90β
Kd [4]: 6400 ± 500 nM
